These results are taken from article PMC9129911, “Electron Flow From the Inner Membrane Towards the Cell Exterior in Geobacter sulfurreducens: Biochemical Characterization of Cytochrome CbcL” (Frontiers in Microbiology, 2022).

This test has as its target T1, triheme cytochrome PpcA from Geobacter sulfurreducens (Geobacter sulfurreducens, three heme groups).
T1 chain: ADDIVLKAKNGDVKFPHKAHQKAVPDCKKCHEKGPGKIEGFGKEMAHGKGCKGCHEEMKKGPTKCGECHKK
The test is described as follows: NMR titration; 1D 1H NMR chemical shift perturbation; CbcL (800 uM stock) added to 50 uM PpcA, both oxidized, 10 mM sodium phosphate pH 8, in 2H2O, 25°C; shift of PpcA heme methyl 18^1CH3^I fitted to a one binding site model under fast exchange. As to conditions: both partners purified.

B1: CbcL periplasmic domain (c- and b-type cytochrome for low potential) from Geobacter sulfurreducens (domain or fragment)
chain: IDPATCLGCHSNKISAAAFSASVHGKNACTSCHVEITDLTKHMKGEVKVEKVRCERCHKKENAEHYSSVHAQKDVRCADCHTDIHTHSYWNKDKRKVVAKCIQCHDKEAGYRNSIHGKGVAAGNMDSAACNDCHNLHDIKPLGDPKSKENREFHTKVCLKCHADEKMMERNNVFTVAVKTYMDSYHGKNYRLGFPEKVAGCADCHTAHGVLPAKDPNSSVNPQNLVATCAKCHPKATPLFTKFYSHGELG
modifications: nine c-type heme groups
In the case of B1, the Kd was 57 ± 9 µM.

For orientation: Kd means the constant that tells how readily two partners part at equilibrium.
